{"source": "patent US12247238B2", "about": "“Mogroside biocatalysis methods and products” (The Coca-Cola Company, priority 2019, dated 2025)", "molecules": {"B1": {"name": "E200A: A. oryzae β-galactosidase variant, E200A (protein, UniProt Q2UCU3 19-1005, looked up, variant E200A)", "Beta-galactosidase A": "ASIKHRLNGFTILEHPDPAKRDLLQDIVTWDDKSLFINGERIMLFSGEVHPFRLPVPSLWLDIFHKIRALGFNCVSFYIDWALLEGKPGDYRAEGIFALEPFFDAAKEAGIYLIARPGSYINAEVSGGGFPGWLQRVNGTLRSSDEPFLKATDNYIANAAAAVAKAQITNGGPVILYQPENAYSGGCCGVKYPDADYMQYVMDQARKADIVVPFISNDASPSGHNAPGSGTGAVDIYGHDSYPLGFDCANPSVWPEGKLPDNFRTLHLEQSPSTPYSLLEFQAGAFDPWGGPGFEKCYALVNHEFSRVFYRNDLSFGVSTFNLYMTFGGTNWGNLGHPGGYTSYDYGSPITETRNVTREKYSDIKLLANFVKASPSYLTATPRNLTTGVYTDTSDLAVTPLIGDSPGSFFVVRHTDYSSQESTSYKLKLPTSAGNLTIPQLEGTLSLNGRDSKIHVVDYNVSGTNIIYSTAEVFTWKKFDGNKVLVLYGGPKEHHELAIASKSNVTIIEGSDSGIVSTRKGSSVIIGWDVSSTRRIVQVGDLRVFLLDRNSAYNYWVPELPTEGTSPGFSTSKTTASSIIVKAGYLLRGAHLDGADLHLTADFNATTPIEVIGAPTGAKNLFVNGEKASHTVDKNGIWSSEVKYAAPEIKLPGLKDLDWKYLDTLPEIKSSYDDSAWVSADLPKTKNTHRPLDTPTSLYSSDYGFHTGYLIYRGHFVANGKESEFFIRTQGGSAFGSSVWLNETYLGSWTGADYAMDGNSTYKLSQLESGKNYVITVVIDNLGLDENWTVGEETMKNPRGILSYKLSGQDASAITWKLTGNLGGEDYQDKVRGPLNEGGLYAERQGFHQPQPPSESWESGSPLEGLSKPGIGFYTAQFDLDLPKGWDVPLYFNFGNNTQAARAQLYVNGYQYGKFTGNVGPQTSFPVPEGILNYRGTNYVALSLWALESDGAKLGSFELSYTTPVLTGYGNVESPEQPKYEQRKGAY"}, "B2": {"name": "E142Q: A. oryzae β-galactosidase variant, E142Q (protein, UniProt Q2UCU3 19-1005, looked up, variant E142Q)", "Beta-galactosidase A": "B1 Beta-galactosidase A with E124Q, A182E"}, "B3": {"name": "E298Q: A. oryzae β-galactosidase variant, E298Q (protein, UniProt Q2UCU3 19-1005, looked up, variant E298Q)", "Beta-galactosidase A": "B1 Beta-galactosidase A with A182E, E280Q"}, "B4": {"name": "E200A; E298A: A. oryzae β-galactosidase double variant E200A, E298A (protein, UniProt Q2UCU3 19-1005, looked up, variant E200A E298A)", "Beta-galactosidase A": "B1 Beta-galactosidase A with E280A"}, "B5": {"name": "E200Q; E298Q: A. oryzae β-galactosidase double variant E200Q, E298Q (protein, UniProt Q2UCU3 19-1005, looked up, variant E200Q E298Q)", "Beta-galactosidase A": "B1 Beta-galactosidase A with A182Q, E280Q"}, "B6": {"name": "E804A: A. oryzae β-galactosidase variant, E804A (protein, UniProt Q2UCU3 19-1005, looked up, variant E804A)", "Beta-galactosidase A": "B1 Beta-galactosidase A with A182E, E786A"}, "B7": {"name": "D258A, E298A: A. oryzae β-galactosidase double variant D258A, E298A (protein, UniProt Q2UCU3 19-1005, looked up, variant D258A E298A)", "Beta-galactosidase A": "B1 Beta-galactosidase A with A182E, D240A, E280A"}, "B8": {"name": "D258Q: A. oryzae β-galactosidase variant, D258Q (protein, UniProt Q2UCU3 19-1005, looked up, variant D258Q)", "Beta-galactosidase A": "B1 Beta-galactosidase A with A182E, D240Q"}, "B9": {"name": "D258A: A. oryzae β-galactosidase variant, D258A (protein, UniProt Q2UCU3 19-1005, looked up, variant D258A)", "Beta-galactosidase A": "B1 Beta-galactosidase A with A182E, D240A"}, "B10": {"name": "E298A: A. oryzae β-galactosidase variant, E298A (protein, UniProt Q2UCU3 19-1005, looked up, variant E298A)", "Beta-galactosidase A": "B1 Beta-galactosidase A with A182E, E280A"}, "B11": {"name": "PpAoBG: same acid lactase/β-Galactosidase enzyme as the Maxilact A4, expressed in a Pichia pistoris system (protein, UniProt Q2UCU3 19-1005, looked up)", "Beta-galactosidase A": "B1 Beta-galactosidase A with A182E", "modifications": "expressed in Pichia pastoris", "notes": "same acid lactase/β-Galactosidase enzyme as the Maxilact A4, expressed in a Pichia pistoris system"}, "B12": {"name": "ML: acid lactase/β-Galactosidase enzyme preparation from Aspergillus oryzae expressed in Aspergillus niger (protein, UniProt Q2UCU3 19-1005, looked up)", "Beta-galactosidase A": "B1 Beta-galactosidase A with A182E", "modifications": "enzyme preparation expressed in Aspergillus niger"}}, "note": "Where a chain is given by its changes, count along the chain named. In names and notes the source's numbering stands. Entries after “also recorded” stand apart in the source; their conditions may differ.", "data": [{"test": "β-galactosidase ONPG activity assay", "assay_type": "biochemical", "details": "oNPG substrate, over 30 minutes", "method": "Standard β-galactosidase assays were performed at room temperature using o-nitrophenyl-β-D-galactopyranoside (ONPG, Sigma) as a substrate in […] with detection of o-nitrophenol release at 420 nm (UV-Spectra Max Spectrophotometer, Molecular Devices, USA). A typical reaction contained 50 mM sodium citrate buffer pH 5.6, 10 mM magnesium chloride and 100 mM potassium chloride with 2 mM ONPG and the desired amount of enzyme (usually […]). Partially purified AoBG (Sigma G5160, USA) was used as a positive control at a final concentration of 1 U mL−1. Vmax was calculated using the SpectraMax Plus software (Molecular Devices, USA) and when required kinetics were determined by varying the concentration of substrate and kinetic determinants calculated using Hyper™ (J. S. Easterby, Liverpool University).\n(§1) Cells expressing enzyme variants grown in buffered minimal medium were induced for 72 hr with 1% methanol (refreshed every 24 hr), the culture supernatant harvested and assayed for standard ONPG activity over 30 minutes and mogroside V activity at pH 5.6, 37° C. for 72 hrs. The resultant activity data (Table 2) identified E200 and D258 as the likely catalytic pair for acid/base and nucleophilic attack of mogroside V by the A. oryzae β-glucosidase enzyme.", "values": [{"molecule": "B1", "oNPG": "INACTIVE"}, {"molecule": "B2", "oNPG": "34.6 ± 0.5 mAu/min/mg"}, {"molecule": "B3", "oNPG": "5.2 ± 0.1 mAu/min/mg"}, {"molecule": "B4", "oNPG": "INACTIVE"}, {"molecule": "B5", "oNPG": "INACTIVE"}, {"molecule": "B6", "oNPG": "34.7 ± 0.4 mAu/min/mg"}, {"molecule": "B7", "oNPG": "INACTIVE"}, {"molecule": "B8", "oNPG": "INACTIVE"}, {"molecule": "B9", "oNPG": "INACTIVE"}, {"molecule": "B10", "oNPG": "6.3 ± 0.1 mAu/min/mg"}]}, {"test": "Mogroside biocatalytic assay, equimolar MogV:SiaI substrate", "assay_type": "biochemical", "details": "comparison of wildtype and variant", "method": "(§2) Standard mogroside biocatalytic assays were performed at 37° C. in 500 μL, volume 50 mM sodium citrate buffer pH 5.6, 10 mM magnesium chloride, 10 mM substrate (typically mogroside V) and 50 μg mL−1 enzyme, and incubated for 24-96 hours. Mogroside glucosidation activity was detected by direct HPLC detection and quantification of mogroside V substrate and mogroside products from filtered reaction supernatant, and quantified by comparison with standard curves based on peak.\n(§3) Mogroside compounds HPLC separation and quantification was conducted using a Synergi Hydro-RP column (250 mm×4.6 mm or 150 mm×4.6 mm) with an initial flow rate of 1 mL min−1 and a water: acetonitrile gradient as per below, similar to that described by Zhou et al. (WO 2014/150127). Compounds were detected at 210 nm using diode array detector (Agilent Technologies, USA), and calibration curves established using standard curves from 0.1 to 10 mM.", "values": [{"molecule": "B6", "effectiveness of Siamenoside I as a substrate in the presence of mogroside V (in words)": "reducing the effectiveness of Siamenoside I as a substrate"}]}, {"test": "Reaction distributions (product ratios) of beta-galactosidase preparations", "assay_type": "biochemical", "details": "12.8 g/L MG-V (10 mM), pH 6.0, 50° C., 96 hrs", "method": "as §3\nReaction distributions were evaluated for G5160 beta-galactosidase (Sigma), Maxilact A4 beta-galactosidase (DSM) and Pp-Aspergillus oryzae beta-galactosidase.\nUsing 12.8 g/L MG-V (10 mM) at pH 6.0, 50° C. for 96 hrs reaction time", "units": {"Mog III": "%", "Mog IV": "%", "Mog V": "%", "Siam I": "%"}, "values": [{"molecule": "B11", "Mog III": 12, "Mog IV": 21, "Mog V": 24, "Siam I": 43}, {"molecule": "B12", "Mog III": 17, "Mog IV": 12, "Mog V": 22, "Siam I": 49}]}, {"test": "Standard mogroside biocatalytic assay, mogroside V substrate", "assay_type": "biochemical", "details": "not given", "method": "as §2, §3, §1", "values": [{"molecule": "B6", "Siamenoside I production/yield from mogroside V (in words)": "increased ratio of Siamenoside I production; also recorded: increased Siamenoside I yield"}]}, {"test": "Standard mogroside biocatalytic assay, mogroside V substrate", "assay_type": "biochemical", "details": "Mogroside hydrolysis, 37 C., pH 5.6", "method": "as §2, §3, §1", "units": {"Initial Rate": "µmol/min/mg"}, "values": [{"molecule": "B2", "Initial Rate": 2.05}, {"molecule": "B3", "Initial Rate": 1.82}, {"molecule": "B6", "Initial Rate": 3.06}, {"molecule": "B10", "Initial Rate": 2.08}]}, {"test": "Standard mogroside biocatalytic assay, mogroside V substrate", "assay_type": "biochemical", "details": "Mogroside hydrolysis, 72 h, 37 C., pH 5.6", "method": "as §2, §3, §1", "units": {"Reaction Progress": "%", "Sia 1": "%"}, "values": [{"molecule": "B2", "Reaction Progress": 88, "Sia 1": 43}, {"molecule": "B3", "Reaction Progress": 89, "Sia 1": 48}, {"molecule": "B6", "Reaction Progress": 78, "Sia 1": 62}, {"molecule": "B10", "Reaction Progress": 85, "Sia 1": 52}]}, {"test": "Standard mogroside biocatalytic assay, mogroside V substrate", "assay_type": "biochemical", "details": "mogV assay, HPLC analysis, 37° C., after 48 hrs", "method": "as §2, §3, §1", "units": {"Siamenoside I produced": "%"}, "values": [{"molecule": "B11", "Siamenoside I produced": "~32"}]}, {"test": "Standard mogroside biocatalytic assay, mogroside V substrate", "assay_type": "biochemical", "details": "product ratio, 72 h, 37 C., pH 5.6", "method": "as §2, §3, §1", "values": [{"molecule": "B2", "Sia:MogIII": 3.8, "Sia:MogIV": 2.2}, {"molecule": "B3", "Sia:MogIII": 3.7, "Sia:MogIV": 2.2}, {"molecule": "B6", "Sia:MogIII": 18.6, "Sia:MogIV": 3.3}, {"molecule": "B10", "Sia:MogIII": 3.5, "Sia:MogIV": 2.1}]}]}
